These results are taken from patent publication US20210079037A1, “LIGHT-SWITCHABLE POLYPEPTIDE AND USES THEREOF” (TECHNISCHE UNIVERSITÄT MÜNCHEN, priority 2017, published 2021).

Numbered stars: 1 amine (or outer) side, 2 acyl side, 3 side chain; on linkers, the order of the positions; unused ones are H or OH. Square brackets hold non-standard residues; d marks the D form. Caf = 4′-carboxyphenylazophenylalanine, O=C([C@H](Cc1ccc(/N=N/c2ccc(C(=O)[*:3])cc2)cc1)N[*:1])[*:2]

In the data set the test system is mouse anti-6×His antibody alkaline phosphatase (AP) conjugate. As to the kind of experiment: ELISA for light-induced reversible binding of an immunoglobulin to ProtL^Caf-ABD fusion proteins. The following applies: for change in enzyme activity of bound Ig-AP conjugate after irradiation with UV light: UV light at 365 nm, 5 min; for affinity for the IgG (ELISA signal): ground state / illuminated with visible light. As to the method: ELISA was performed at ambient temperature in a 96-well Maxisorb microtiter plate (Nunc, Langenselbold, Germany).
Then, the wells were blocked with […] Roti-Block (Carl Roth, Karlsruhe, Germany) diluted 1:10 in ddH2O for 1 h and washed three times with PBS containing 0.1% v/v Tween 20 (PBS/T). After that, the purified ProtL^Caf-ABD fusion protein from Example 11 was applied in a dilution series in PBS/T and incubated for 1 h to effect complex formation between the ABD moiety and the pre-adsorbed HSA. The wells were then washed three times with PBS/T and incubated with 50 μl of a 1:1000 dilution in PBS/T of the aforementioned mouse anti-6×His Ig-AP conjugate.
All subsequent washing steps were performed in the dark. […] After 5 min at 25° C., the absorbance at 405 nm was measured using a SpectraMax 250 microtiter plate reader (Molecular Devices, Sunnyvale, Calif., USA).
(An ELISA detects its analyte on a solid surface through an enzyme-linked reagent.)

B1: ProtL^Caf347: ProtL-ABD fusion protein with Caf at position 347 and mutation Tyr361Ala (protein)
chain: MKEEVTIKVNLIFADGKTQTAE[Caf]KGTFEEATAKAYAAADLLAKENGEYTADLEDGGNTINIKFAGGAVDANSLAEAKVLANRELDKYGVSDYYKNLINNAKTVEGVKALIDEILAALP
Turning to B1, the “change in enzyme activity of bound Ig-AP conjugate after irradiation with UV light” value is reported as “much less signal decrease”.

B2: ProtL^Caf364: ProtL-ABD fusion protein modified with Caf at position 364 (protein)
chain: MKEEVTIKVNLIFADGKTQTAEFKGTFEEATAKAYAYAD[Caf]LAKENGEYTADLEDGGNTINIKFAGGAVDANSLAEAKVLANRELDKYGVSDYYKNLINNAKTVEGVKALIDEILAALP
As to B2, the “change in enzyme activity of bound Ig-AP conjugate after irradiation with UV light” value is reported as “much less signal decrease”.

B3: ProtL-ABD: unmodified protein L domain B1 fused to a human albumin-binding domain (SEQ ID NO: 61) (protein)
chain: MKEEVTIKVNLIFADGKTQTAEFKGTFEEATAKAYAYADLLAKENGEYTADLEDGGNTINIKFAGGAVDANSLAEAKVLANRELDKYGVSDYYKNLINNAKTVEGVKALIDEILAALP
modifications: ProtL-ABD fusion protein
As for B3, the “change in enzyme activity of bound Ig-AP conjugate after irradiation with UV light” value is given as “did not reveal any change in binding activity”.

B4: ProtL^Caf337: ProtL-ABD fusion protein with Caf at position 337 and mutations Tyr361Asn and Leu365Ser (SEQ ID NO: 86) (protein)
chain: MKEEVTIKVNLI[Caf]ADGKTQTAEFKGTFEEATAKAYANADLSAKENGEYTADLEDGGNTINIKFAGGAVDANSLAEAKVLANRELDKYGVSDYYKNLINNAKTVEGVKALIDEILAALP
Turning to B4, the “change in enzyme activity of bound Ig-AP conjugate after irradiation with UV light” value is given as “clear decrease” and the “affinity for the IgG (ELISA signal)” value is listed as “showed affinity for the IgG”. Also, the “dissociation constant for the complex with the anti-6×His antibody” value (after irradiation with UV light at 365 nm) was “too low to deduce a dissociation constant”. Under “ground state (no UV), curve fit of the ELISA data, read-out: dissociation constant for the complex with the anti-6×His antibody”, the Kd is about 140 nM. Besides, the “affinity for the IgG (ELISA signal)” value (listed as Caf337) was “high affinity”.

B5: ProtL^Caf368: ProtL-ABD fusion protein modified with Caf at position 368 (protein)
chain: MKEEVTIKVNLIFADGKTQTAEFKGTFEEATAKAYAYADLLAK[Caf]NGEYTADLEDGGNTINIKFAGGAVDANSLAEAKVLANRELDKYGVSDYYKNLINNAKTVEGVKALIDEILAALP
As to B5, the “change in enzyme activity of bound Ig-AP conjugate after irradiation with UV light” value was “much less signal decrease”.

B6: ProtL^Caf360: ProtL-ABD fusion protein modified with Caf at position 360 (protein)
chain: MKEEVTIKVNLIFADGKTQTAEFKGTFEEATAKAY[Caf]YADLLAKENGEYTADLEDGGNTINIKFAGGAVDANSLAEAKVLANRELDKYGVSDYYKNLINNAKTVEGVKALIDEILAALP
As for B6, the “change in enzyme activity of bound Ig-AP conjugate after irradiation with UV light” value is “much less signal decrease”.

B7: ProtL^Caf369: ProtL-ABD fusion protein modified with Caf at position 369 (protein)
chain: MKEEVTIKVNLIFADGKTQTAEFKGTFEEATAKAYAYADLLAKE[Caf]GEYTADLEDGGNTINIKFAGGAVDANSLAEAKVLANRELDKYGVSDYYKNLINNAKTVEGVKALIDEILAALP
As to B7, the “change in enzyme activity of bound Ig-AP conjugate after irradiation with UV light” value is on record as “much less signal decrease”.
